# According to paper PMC5748844 (The Journal of Experimental Medicine, 2018):
# Where two headings read alike, the source gives them in different places.
# What was measured:
# [1] = target: soluble RAGE (receptor for advanced glycation end products) (UniProt Q15109); assay: SPR
# [2] = target: soluble RAGE (receptor for advanced glycation end products) (UniProt Q15109); assay: SPR; remark: listed apart in the source
Kd [1],Kd [2],Molecule
3.5 µM,,nonoxidizable HMGB1 mutant 3S (from UniProt P63159 1-215) (natural protein)
,3.5 µM,"fully reduced HMGB1 (High Mobility Group Box 1) (natural protein, all cysteines reduced) MGKGDPKKPRGKMSSYAFFVQTCREEHKKKHPDASVNFSEFSKKCSERWKTMSAKEKGKFEDMAKADKARYEREMKTYIPPKGETKKKFKDPNAPKRPPSAFFLFCSEYRPKIKGEHPGLSIGDVAKKLGEMWNNTAADDKQPYEKKAAKLKEKYEKDIAAYRAKGKPDAAKKGVVKAEKSKKKKEEEDDEEDEEDEEEEEEEEDEDEEEDDDDE"
